In this assay the target is Segmentally labelled CheA (P1 domain and P2-5 part labelled differently and joined) (Escherichia coli) (UniProt P07363). Description: NMR titration.
UniProt P07363, sequence (P07363 whole entry, the tested form may be a part): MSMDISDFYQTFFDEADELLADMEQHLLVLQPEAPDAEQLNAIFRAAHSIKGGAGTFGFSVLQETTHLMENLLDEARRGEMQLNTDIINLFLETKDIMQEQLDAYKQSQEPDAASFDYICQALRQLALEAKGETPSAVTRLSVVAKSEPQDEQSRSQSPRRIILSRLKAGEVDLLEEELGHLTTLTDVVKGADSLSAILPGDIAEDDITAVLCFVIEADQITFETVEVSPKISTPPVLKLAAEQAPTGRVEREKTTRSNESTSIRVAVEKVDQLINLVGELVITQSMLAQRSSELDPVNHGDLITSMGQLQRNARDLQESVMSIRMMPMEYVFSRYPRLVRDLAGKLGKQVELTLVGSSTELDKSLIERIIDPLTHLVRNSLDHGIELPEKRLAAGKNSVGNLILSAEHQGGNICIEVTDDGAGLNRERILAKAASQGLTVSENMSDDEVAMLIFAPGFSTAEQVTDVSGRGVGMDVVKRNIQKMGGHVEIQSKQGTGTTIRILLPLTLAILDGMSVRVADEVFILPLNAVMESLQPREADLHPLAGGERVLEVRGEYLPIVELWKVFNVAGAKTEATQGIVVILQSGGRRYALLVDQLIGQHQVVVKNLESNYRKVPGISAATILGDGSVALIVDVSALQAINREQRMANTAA

As for “CheY from Escherichia coli, wild type (from UniProt P0AE67 1-129) (natural protein)”, the stoichiometry N (CheY per CheA) was found to be 2.
